B1: UGT33D8 CRE2 (dsDNA)
DNA 1: TCAGGCAAGGTCAAAGCC
DNA 2: GGCTTTGACCTTGCCTGA
B2: Chsy1 CRE1 (dsDNA)
DNA 1: TCTCACAAGGTTGATGTC
DNA 2: GACATCAACCTTGTGAGA
B3: Ca7 CRE4 (dsDNA)
DNA 1: ATTCAATAGGTTATTTCT
DNA 2: AGAAATAACCTATTGAAT
B4: HPD CRE3 (dsDNA)
DNA 1: TCCACAAACGTCAATAGC
DNA 2: GCTATTGACGTTTGTGGA
B5: TPS CRE3 (dsDNA)
DNA 1: GGCTGTAACCTTGTCCTC
DNA 2: GAGGACAAGGTTACAGCC
B6: HPD CRE1 (dsDNA)
DNA 1: ACACGCGCCCTTTATATA
DNA 2: TATATAAAGGGCGCGTGT
B7: GK CRE1 (dsDNA)
DNA 1: CCCCATGACCTTCGCCGG
DNA 2: CCGGCGAAGGTCATGGGG
B8: GlyP CRE3 (dsDNA)
DNA 1: ACGTCCAACGTCAAACCA
DNA 2: TGGTTTGACGTTGGACGT
B9: Ca7 CRE3 (dsDNA)
DNA 1: GACTTCGAATGTCATGTCGC
DNA 2: GCGACATGACATTCGAAGTC
B10: Ca7 CRE2 (dsDNA)
DNA 1: TTTATTGCCCTTGTAGGC
DNA 2: GCCTACAAGGGCAATAAA
B11: Acyl CRE1 (dsDNA)
DNA 1: TATATTGCCCTTGTAAGT
DNA 2: ACTTACAAGGGCAATATA
B12: HPD CRE2 (dsDNA)
DNA 1: GGACTATAACCTCGTCTCTT
DNA 2: AAGAGACGAGGTTATAGTCC
B13: Atgl CRE3 (dsDNA)
DNA 1: CGCTCTGACATTGAAAAG
DNA 2: CTTTTCAATGTCAGAGCG
B14: UGT46A2 CRE2 (dsDNA)
DNA 1: TCGTCGTAACCTTAAAGATA
DNA 2: TATCTTTAAGGTTACGACGA
B15: Ca7 CRE1 (dsDNA)
DNA 1: TAATGTGACTTTGAATCG
DNA 2: CGATTCAAAGTCACATTA
B16: Akr2e CRE2 (dsDNA)
DNA 1: ACTAGTTAAGGTTACGCTGA
DNA 2: TCAGCGTAACCTTAACTAGT
B17: Aldh1b1 CRE3 (dsDNA)
DNA 1: CCTGGTTAAGGTTAGAAGTC
DNA 2: GACTTCTAACCTTAACCAGG
B18: GK CRE3 (dsDNA)
DNA 1: GATTGTCAATGTCAATGTCATGAACA
DNA 2: TGTTCATGACATTGACATTGACAATC
B19: FAH CRE1 (dsDNA)
DNA 1: TTTTTCCAAGGACGTTTGAG
DNA 2: CTCAAACGTCCTTGGAAAAA
B20: Tret1 CRE3 (dsDNA)
DNA 1: GCGGACTCACAAGGTCCTACCA
DNA 2: TGGTAGGACCTTGTGAGTCCGC
B21: Tret1 CRE2 (dsDNA)
DNA 1: TTTTTGTAACCTTAAACTCCT
DNA 2: AGGAGTTTAAGGTTACAAAAA
B22: Tret1 CRE1 (dsDNA)
DNA 1: AGCTTCTCCTTGACGTGTAG
DNA 2: CTACACGTCAAGGAGAAGCT

target: T1, BmERR DBD (Bombyx mori, UniProt A0A1B1M0R7 103-178); assay: EMSA; EMSA, Beyotime kit buffer (composition not given), 25 °C 25 min; 5% native PAGE in 1x TBE (45 mM Tris-borate, 1 mM EDTA, pH 8.3); settings: protein: recombinant; label: biotin 3'; blunt
T1 sequence: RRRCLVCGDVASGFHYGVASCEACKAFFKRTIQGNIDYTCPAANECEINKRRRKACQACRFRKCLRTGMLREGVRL

Row | Binder | binding result
1 | B1 | binds
2 | B2 | binds
3 | B3 | binds
4 | B4 | binds
5 | B5 | binds
6 | B6 | binds
7 | B7 | binds
8 | B8 | binds
9 | B9 | binds
10 | B10 | binds
11 | B11 | binds
12 | B12 | binds
13 | B13 | binds
14 | B14 | binds
15 | B15 | binds
16 | B16 | binds
17 | B17 | binds
18 | B18 | binds
19 | B19 | binds

target: T1, BmERR DBD; assay: EMSA; listed in Table 2; text names only CRE1 and CRE2; EMSA, Beyotime kit buffer (composition not given), 25 °C 25 min; 5% native PAGE in 1x TBE (45 mM Tris-borate, 1 mM EDTA, pH 8.3); settings: protein: recombinant; label: biotin 3'; blunt

Row | Binder | binding result
20 | B20 | binds

target: T1, BmERR DBD; assay: EMSA; not among Table 2 motifs; EMSA, Beyotime kit buffer (composition not given), 25 °C 25 min; 5% native PAGE in 1x TBE (45 mM Tris-borate, 1 mM EDTA, pH 8.3); settings: protein: recombinant; label: biotin 3'; blunt

Row | Binder | binding result
21 | B21 | binds
22 | B22 | binds

Source: article PMC12112554, “Estrogen-Related Receptor Potential Target Genes in Silkworm (Bombyx mori): Insights into Metabolic Regulation”
